According to patent US20140336127A1, “Stabilized Peptide Helices For Inhibiting Dimerization Of Chemokine C Motif Receptor 2 (CCR2)” (Yissum Research Development Company of the Hebrew …, priority 2012, published 2014):
Starred links: 1 amine or outer side, 2 acyl side, 3 side chain; linkers in the order of their positions; H or OH if unused. Positions of bridges follow the written chain, without caps; N, C: chain ends. Non-standard residues stand in square brackets, D forms with d. Residues, ends and D or L forms follow the SMILES beside them. No end group written: not given here. BU = not defined here; CO = O=C([*:1])[*:2]

What was measured:
intestinal peptidases = assay: metabolic stability BBMV assay (degradation by intestinal peptidases); assay type: in vitro ADME, rat; conditions: 37° C.
Protocol: The enzymatic reaction is performed similar to what described in Ovadia et al. (2009, Bioorg Med Chem 18, 580-589): 2 mM stock solutions of the tested compounds are diluted with serum or purified brush border membrane vesicles (BBMVs) solution to a final concentration of 0.5 mM. During incubation at 37° C. samples are taken for a period of 90 minutes. The enzymatic reaction is stopped by adding 1:1 v/v of ice cold acetonitrile and centrifuge (4000 g, 10 min) before analysis.
The BBMVs are prepared from combined duodenum, jejunum, and upper ileum (male Wistar rats) by a Ca++ precipitation method (Gante, J., Angew Chem Int Edit 1994, 33, (17), 1699-1720; Hess et al., ibid). Purification of the BBMVs is assayed using GGT, LAP and alkaline phosphatase as membrane enzyme markers.
M3D-1 was tested for metabolic stability to degradation by intestinal peptidases using the BBMV assay described above. The linear CCR2b(61-67) peptide was used as a control.

CCR2 = molecular target: T1, CCR2 (Homo sapiens, UniProt P41597); assay: transwell migration assay with MCP-1 as chemoattractant (THP-1 cells); assay type: cell-based
T1 construct: endogenous in cells; host or cells: THP-1
T1 sequence (P41597 1-360 isoform P41597-2): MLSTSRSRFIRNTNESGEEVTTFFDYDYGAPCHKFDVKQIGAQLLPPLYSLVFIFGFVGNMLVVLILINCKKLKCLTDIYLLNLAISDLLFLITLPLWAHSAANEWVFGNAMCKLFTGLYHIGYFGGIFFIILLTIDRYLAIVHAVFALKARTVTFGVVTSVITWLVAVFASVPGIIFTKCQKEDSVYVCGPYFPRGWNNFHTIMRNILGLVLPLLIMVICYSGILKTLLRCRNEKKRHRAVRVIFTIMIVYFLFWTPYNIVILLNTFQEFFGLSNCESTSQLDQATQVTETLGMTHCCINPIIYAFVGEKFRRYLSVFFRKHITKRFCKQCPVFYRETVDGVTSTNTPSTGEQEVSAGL
Protocol: A transwell migration assay (Bignold, L. P., J Immunol Methods 1987, 105, (2), 275-80) was performed using MCP-1 as a chemoattractant. The chemokine MCP-1 reacts only with the chemokine receptors CCR2 and CCR4. […] In this experiment, THP-1 cells were placed in the upper well of the trans-migration plate and specific migration was induced by placing MCP-1 in the lower well. The cells were allowed to migrate spontaneously or toward the chemokine, and counted after migration. To evaluate the effect of hCCR2b(61-67) on MCP-1-induced migration, the peptide (10 μM) was incubated with the cells and the number of migrating cells in the lower wells were determined.
(§1) The simple transwell migration assay (Mandelboim, O. Protocol Exchange (2006) doi:10.1038/nprot.2006.210) was used for evaluating the chemotactic migration in the presence of M3D-1. M3D-1 inhibited THP-1 cells migration towards MCP-1 (FIG. 7 stripes).

CXCR4 = molecular target: T2, CXCR4 (Homo sapiens, UniProt P61073); assay: transwell migration assay, SDF-1 (CXCL12) induced migration; assay type: cell-based; conditions: cells migrating towards SDF-1; FIG. 7 crosshatch
T2 construct: endogenous in cells; host or cells: THP-1 (inferred; b171 says only 'cells')
Text: as §1
SDF-1 is known to have strong chemotactic effects following specific interaction with the receptor CXCR4 (Bleul et al., ibid).

THP-1 cells = assay: spontaneous migration of THP-1 cells without additional chemokines; assay type: cell-based, human; conditions: FIG. 7 dots
Protocol: THP-1 cells spontaneous migration was evaluated without additional chemokines.

cells = assay: in vitro cytotoxicity assay; assay type: cell-based

T2 sequence (P61073 whole entry): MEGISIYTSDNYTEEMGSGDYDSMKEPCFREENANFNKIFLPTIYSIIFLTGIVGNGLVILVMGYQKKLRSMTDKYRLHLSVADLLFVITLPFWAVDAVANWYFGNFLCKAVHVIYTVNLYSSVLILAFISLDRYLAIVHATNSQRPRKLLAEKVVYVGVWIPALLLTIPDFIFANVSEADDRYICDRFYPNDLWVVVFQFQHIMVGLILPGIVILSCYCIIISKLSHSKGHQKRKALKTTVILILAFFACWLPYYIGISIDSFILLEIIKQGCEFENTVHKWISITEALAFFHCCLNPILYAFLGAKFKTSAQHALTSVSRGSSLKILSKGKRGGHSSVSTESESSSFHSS

| degradation by intestinal peptidases (intestinal peptidases; FIG. 9, linear control peptide) | inhibition of MCP-1-mediated migration (CCR2; THP-1 cells migrating towards MCP-1, concentration not given, FIG. 2 / FIG. 7) | concentration range blocking specific CCR2 chemokine mediated cell migration (CCR2; summary statement in the description) | inhibition of SDF-1 induced migration (CXCR4) | Compound | number of cells that migrate in the absence of chemokine, with or without peptide (THP-1 cells) | toxicity to cells (cells) | time stable to degradation by intestinal peptidases (intestinal peptidases; FIG. 9) |
| --- | --- | --- | --- | --- | --- | --- | --- |
| completed degraded after about one hour | – | – | – | CC[C@H](C)[C@H](NC(=O)[C@H](CC(C)C)NC(=O)[C@@H](NC(=O)[C@@H](NC(=O)[C@H](CC(C)C)NC(=O)[C@@H](N)CCSC)C(C)C)C(C)C)C(=O)N[C@@H](CC(C)C)C(=O)O [hCCR2b(61-67), MLVVLIL] (H-MLVVLIL-OH; N-terminus and C-terminus assumed) | – | – | – |
| – | inhibited | low micro-molar range | no significant inhibition | M-L-V-BU-L-I-BU-NH2 (MLV[BU]LI[BU]-NH2; bridge 4-7 via CO; reading uncertain; also: printed as M-L-V-BU-L-I-BU-NH2) [M3D-1] | no significant difference | not toxic to cells | at least 3 hours |
